Results: PMC4031084, “The Phytochrome B/Phytochrome C Heterodimer Is Necessary for Phytochrome C-Mediated Responses in Rice Seedlings” (PLoS ONE, 2014)

Legend:
recombinant rice phyA = target: T1, recombinant rice phyA (Oryza sativa, UniProt Q10DU0); assay: R/FR absorbance difference spectroscopy of the purified holoprotein; assay type: binding; settings: covalent; chromophore assembled in E. coli
T1 construct: full length; phytochromobilin-producing E. coli Rosetta 2; homodimer on SEC
T1 sequence (Q10DU0 1-1128): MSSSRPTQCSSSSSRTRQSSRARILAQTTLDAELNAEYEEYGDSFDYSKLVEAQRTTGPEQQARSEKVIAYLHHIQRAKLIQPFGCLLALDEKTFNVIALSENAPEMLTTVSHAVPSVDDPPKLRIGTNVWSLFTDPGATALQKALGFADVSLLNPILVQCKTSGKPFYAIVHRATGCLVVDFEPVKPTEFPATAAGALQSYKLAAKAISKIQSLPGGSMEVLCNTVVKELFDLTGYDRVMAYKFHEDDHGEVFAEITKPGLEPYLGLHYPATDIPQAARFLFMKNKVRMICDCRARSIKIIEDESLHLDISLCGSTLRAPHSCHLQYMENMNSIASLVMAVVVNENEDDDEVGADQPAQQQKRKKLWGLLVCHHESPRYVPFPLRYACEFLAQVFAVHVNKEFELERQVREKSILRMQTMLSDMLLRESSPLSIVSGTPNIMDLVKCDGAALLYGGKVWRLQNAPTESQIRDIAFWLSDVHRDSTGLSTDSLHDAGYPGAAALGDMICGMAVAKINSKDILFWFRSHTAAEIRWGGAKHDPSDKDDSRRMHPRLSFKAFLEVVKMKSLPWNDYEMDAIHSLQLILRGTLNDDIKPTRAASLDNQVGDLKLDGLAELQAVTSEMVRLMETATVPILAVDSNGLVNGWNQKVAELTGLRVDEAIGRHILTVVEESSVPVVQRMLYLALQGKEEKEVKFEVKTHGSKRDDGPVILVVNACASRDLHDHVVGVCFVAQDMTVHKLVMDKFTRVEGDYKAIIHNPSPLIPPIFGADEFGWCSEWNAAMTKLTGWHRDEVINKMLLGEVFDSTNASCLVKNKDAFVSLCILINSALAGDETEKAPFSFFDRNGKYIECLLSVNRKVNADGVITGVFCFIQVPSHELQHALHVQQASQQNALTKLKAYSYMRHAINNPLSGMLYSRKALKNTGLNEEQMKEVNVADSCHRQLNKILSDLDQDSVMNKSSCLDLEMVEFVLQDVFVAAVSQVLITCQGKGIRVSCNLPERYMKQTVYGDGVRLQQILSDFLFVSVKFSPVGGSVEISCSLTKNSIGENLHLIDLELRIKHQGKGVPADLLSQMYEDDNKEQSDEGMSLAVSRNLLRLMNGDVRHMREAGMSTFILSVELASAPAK

recombinant rice phyC = target: T2, recombinant rice phyC (Oryza sativa, UniProt Q10CQ8); assay: as above; assay type: binding; settings: covalent; chromophore assembled in E. coli
T2 construct: full length; phytochromobilin-producing E. coli Rosetta 2; monomer on SEC
T2 sequence (Q10CQ8 1-1137): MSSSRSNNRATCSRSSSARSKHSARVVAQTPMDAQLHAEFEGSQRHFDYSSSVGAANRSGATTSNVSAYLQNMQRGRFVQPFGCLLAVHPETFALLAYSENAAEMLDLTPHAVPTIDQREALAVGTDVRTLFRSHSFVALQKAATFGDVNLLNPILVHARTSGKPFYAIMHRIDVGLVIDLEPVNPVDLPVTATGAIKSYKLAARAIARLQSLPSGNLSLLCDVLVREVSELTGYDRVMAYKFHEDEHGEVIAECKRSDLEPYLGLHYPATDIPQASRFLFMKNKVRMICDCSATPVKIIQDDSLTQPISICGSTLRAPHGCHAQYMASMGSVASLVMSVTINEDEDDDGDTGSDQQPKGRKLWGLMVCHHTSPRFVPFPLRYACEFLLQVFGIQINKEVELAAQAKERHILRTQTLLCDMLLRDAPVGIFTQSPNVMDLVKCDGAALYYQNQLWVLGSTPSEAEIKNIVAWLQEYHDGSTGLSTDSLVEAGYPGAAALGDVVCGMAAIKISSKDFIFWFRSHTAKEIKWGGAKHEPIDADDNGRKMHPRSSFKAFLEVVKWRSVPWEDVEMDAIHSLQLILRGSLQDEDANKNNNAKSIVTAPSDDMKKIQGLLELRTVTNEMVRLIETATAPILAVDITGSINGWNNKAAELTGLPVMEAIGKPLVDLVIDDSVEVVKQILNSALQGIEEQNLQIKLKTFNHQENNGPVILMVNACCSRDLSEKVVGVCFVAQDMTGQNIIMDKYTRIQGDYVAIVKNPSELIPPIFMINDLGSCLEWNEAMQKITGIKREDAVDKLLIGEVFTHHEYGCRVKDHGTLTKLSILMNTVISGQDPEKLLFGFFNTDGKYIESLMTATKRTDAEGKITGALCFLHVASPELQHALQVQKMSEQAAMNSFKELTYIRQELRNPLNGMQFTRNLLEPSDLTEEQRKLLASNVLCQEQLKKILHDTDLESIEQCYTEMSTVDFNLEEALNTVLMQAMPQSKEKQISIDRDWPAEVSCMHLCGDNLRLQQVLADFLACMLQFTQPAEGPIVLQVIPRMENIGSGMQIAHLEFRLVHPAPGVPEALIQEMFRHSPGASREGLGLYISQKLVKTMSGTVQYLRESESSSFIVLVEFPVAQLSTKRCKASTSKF

[1] = target: the molecule itself; assay: SEC; protein extracts (1 mg total soluble protein) of etiolated seedlings of WT and phytochrome single and double mutants on Superdex 200 HR 10/30; 50 mM Na-phosphate pH 7.0, 150 mM NaCl, 4 C; fractions immunoblotted with anti-PHYA, anti-PHYB, anti-PHYC; column calibrated with molecular weight standards
[2] = target: the molecule itself; assay: SEC; recombinant phyA or phyC from E. coli fractionated on the same column; fractions #17-#24 immunoblotted with anti-His tag or anti-phytochrome antibodies

## C=CC1=C(C)C(=CC2=NC(=Cc3[nH]c(C=C4NC(=O)C(C)C4=CC)c(C)c3CCC(=O)O)C(CCC(=O)O)=C2C)NC1=O (centres unmarked) [phytochromobilin]
Recombinant rice phyA
  R/FR absorbance difference spectroscopy of the purified holoprotein: recombinant phyA was also expressed using the same experimental procedure
Recombinant rice phyC
  R/FR absorbance difference spectroscopy of the purified holoprotein: Recombinant phyC with phytochromobilins as a chromophore was expressed in E. coli

B1: rice phytochrome B (phyB), native (natural protein, UniProt Q10MG9 1-1171, looked up)
chain: MASGSRATPTRSPSSARPAAPRHQHHHSQSSGGSTSRAGGGGGGGGGGGGGAAAAESVSKAVAQYTLDARLHAVFEQSGASGRSFDYTQSLRASPTPSSEQQIAAYLSRIQRGGHIQPFGCTLAVADDSSFRLLAYSENTADLLDLSPHHSVPSLDSSAVPPPVSLGADARLLFAPSSAVLLERAFAAREISLLNPLWIHSRVSSKPFYAILHRIDVGVVIDLEPARTEDPALSIAGAVQSQKLAVRAISRLQALPGGDVKLLCDTVVEYVRELTGYDRVMVYRFHEDEHGEVVAESRRNNLEPYIGLHYPATDIPQASRFLFRQNRVRMIADCHAAPVRVIQDPALTQPLCLVGSTLRSPHGCHAQYMANMGSIASLVMAVIISSGGDDDHNISRGSIPSAMKLWGLVVCHHTSPRCIPFPLRYACEFLMQAFGLQLNMELQLAHQLSEKHILRTQTLLCDMLLRDSPTGIVTQSPSIMDLVKCDGAALYYHGKYYPLGVTPTEVQIKDIIEWLTMCHGDSTGLSTDSLADAGYPGAAALGDAVSGMAVAYITPSDYLFWFRSHTAKEIKWGGAKHHPEDKDDGQRMHPRSSFKAFLEVVKSRSLPWENAEMDAIHSLQLILRDSFRDSAEGTSNSKAIVNGQVQLGELELRGIDELSSVAREMVRLIETATVPIFAVDTDGCINGWNAKVAELTGLSVEEAMGKSLVNDLIFKESEETVNKLLSRALRGDEDKNVEIKLKTFGPEQSKGPIFVIVNACSSRDYTKNIVGVCFVGQDVTGQKVVMDKFINIQGDYKAIVHNPNPLIPPIFASDENTCCSEWNTAMEKLTGWSRGEVVGKLLVGEVFGNCCRLKGPDALTKFMIVLHNAIGGQDCEKFPFSFFDKNGKYVQALLTANTRSRMDGEAIGAFCFLQIASPELQQAFEIQRHHEKKCYARMKELAYIYQEIKNPLNGIRFTNSLLEMTDLKDDQRQFLETSTACEKQMSKIVKDASLQSIEDGSLVLEKGEFSLGSVMNAVVSQVMIQLRERDLQLIRDIPDEIKEASAYGDQYRIQQVLCDFLLSMVRFAPAENGWVEIQVRPNIKQNSDGTDTMLFLFRFACPGEGLPPEIVQDMFSNSRWTTQEGIGLSICRKILKLMGGEVQYIRESERSFFHIVLELPQPQQAASRGTS
notes: phytochrome B of rice (Oryza sativa L. cv. Nipponbare), native protein in seedling extracts; Native photoreceptor; source: endogenous, soluble protein extract of rice seedlings (etiolated or white-light-grown)
[1]
  stoichiometry N: 2

B2: rice phytochrome A (phyA), native (natural protein, UniProt Q10DU0 1-1128, looked up)
chain: MSSSRPTQCSSSSSRTRQSSRARILAQTTLDAELNAEYEEYGDSFDYSKLVEAQRTTGPEQQARSEKVIAYLHHIQRAKLIQPFGCLLALDEKTFNVIALSENAPEMLTTVSHAVPSVDDPPKLRIGTNVWSLFTDPGATALQKALGFADVSLLNPILVQCKTSGKPFYAIVHRATGCLVVDFEPVKPTEFPATAAGALQSYKLAAKAISKIQSLPGGSMEVLCNTVVKELFDLTGYDRVMAYKFHEDDHGEVFAEITKPGLEPYLGLHYPATDIPQAARFLFMKNKVRMICDCRARSIKIIEDESLHLDISLCGSTLRAPHSCHLQYMENMNSIASLVMAVVVNENEDDDEVGADQPAQQQKRKKLWGLLVCHHESPRYVPFPLRYACEFLAQVFAVHVNKEFELERQVREKSILRMQTMLSDMLLRESSPLSIVSGTPNIMDLVKCDGAALLYGGKVWRLQNAPTESQIRDIAFWLSDVHRDSTGLSTDSLHDAGYPGAAALGDMICGMAVAKINSKDILFWFRSHTAAEIRWGGAKHDPSDKDDSRRMHPRLSFKAFLEVVKMKSLPWNDYEMDAIHSLQLILRGTLNDDIKPTRAASLDNQVGDLKLDGLAELQAVTSEMVRLMETATVPILAVDSNGLVNGWNQKVAELTGLRVDEAIGRHILTVVEESSVPVVQRMLYLALQGKEEKEVKFEVKTHGSKRDDGPVILVVNACASRDLHDHVVGVCFVAQDMTVHKLVMDKFTRVEGDYKAIIHNPSPLIPPIFGADEFGWCSEWNAAMTKLTGWHRDEVINKMLLGEVFDSTNASCLVKNKDAFVSLCILINSALAGDETEKAPFSFFDRNGKYIECLLSVNRKVNADGVITGVFCFIQVPSHELQHALHVQQASQQNALTKLKAYSYMRHAINNPLSGMLYSRKALKNTGLNEEQMKEVNVADSCHRQLNKILSDLDQDSVMNKSSCLDLEMVEFVLQDVFVAAVSQVLITCQGKGIRVSCNLPERYMKQTVYGDGVRLQQILSDFLFVSVKFSPVGGSVEISCSLTKNSIGENLHLIDLELRIKHQGKGVPADLLSQMYEDDNKEQSDEGMSLAVSRNLLRLMNGDVRHMREAGMSTFILSVELASAPAK
notes: phytochrome A of rice (Oryza sativa L. cv. Nipponbare), native protein in seedling extracts; source: endogenous, soluble protein extract of etiolated rice seedlings
[1]
  stoichiometry N: 2

B3: recombinant rice phyA with phytochromobilin (natural protein, UniProt Q10DU0 1-1128, looked up)
chain: MSSSRPTQCSSSSSRTRQSSRARILAQTTLDAELNAEYEEYGDSFDYSKLVEAQRTTGPEQQARSEKVIAYLHHIQRAKLIQPFGCLLALDEKTFNVIALSENAPEMLTTVSHAVPSVDDPPKLRIGTNVWSLFTDPGATALQKALGFADVSLLNPILVQCKTSGKPFYAIVHRATGCLVVDFEPVKPTEFPATAAGALQSYKLAAKAISKIQSLPGGSMEVLCNTVVKELFDLTGYDRVMAYKFHEDDHGEVFAEITKPGLEPYLGLHYPATDIPQAARFLFMKNKVRMICDCRARSIKIIEDESLHLDISLCGSTLRAPHSCHLQYMENMNSIASLVMAVVVNENEDDDEVGADQPAQQQKRKKLWGLLVCHHESPRYVPFPLRYACEFLAQVFAVHVNKEFELERQVREKSILRMQTMLSDMLLRESSPLSIVSGTPNIMDLVKCDGAALLYGGKVWRLQNAPTESQIRDIAFWLSDVHRDSTGLSTDSLHDAGYPGAAALGDMICGMAVAKINSKDILFWFRSHTAAEIRWGGAKHDPSDKDDSRRMHPRLSFKAFLEVVKMKSLPWNDYEMDAIHSLQLILRGTLNDDIKPTRAASLDNQVGDLKLDGLAELQAVTSEMVRLMETATVPILAVDSNGLVNGWNQKVAELTGLRVDEAIGRHILTVVEESSVPVVQRMLYLALQGKEEKEVKFEVKTHGSKRDDGPVILVVNACASRDLHDHVVGVCFVAQDMTVHKLVMDKFTRVEGDYKAIIHNPSPLIPPIFGADEFGWCSEWNAAMTKLTGWHRDEVINKMLLGEVFDSTNASCLVKNKDAFVSLCILINSALAGDETEKAPFSFFDRNGKYIECLLSVNRKVNADGVITGVFCFIQVPSHELQHALHVQQASQQNALTKLKAYSYMRHAINNPLSGMLYSRKALKNTGLNEEQMKEVNVADSCHRQLNKILSDLDQDSVMNKSSCLDLEMVEFVLQDVFVAAVSQVLITCQGKGIRVSCNLPERYMKQTVYGDGVRLQQILSDFLFVSVKFSPVGGSVEISCSLTKNSIGENLHLIDLELRIKHQGKGVPADLLSQMYEDDNKEQSDEGMSLAVSRNLLRLMNGDVRHMREAGMSTFILSVELASAPAK
modifications: phytochromobilin as chromophore
notes: full length rice phytochrome A; also called recombinant phyA; source: E. coli Rosetta 2 cells expressing phytochromobilin, purified; not shown: His6, C-terminal, kept
[2]
  stoichiometry N: 2
